{
  "source": "patent US10047345B2",
  "about": "“Culturing of mesenchymal stem cells with FGF4 and nicotinamide” (Gamida-Cell Ltd., priority 2012, dated 2018)",
  "molecules": {"B1": {"name": "PDGF-BB: platelet derived growth factor, homodimer, subunit B (protein, UniProt P01127 82-190, looked up)", "Platelet-derived growth …": "SLGSLTIAEPAMIAECKTRTEVFEISRRLIDRTNANFLVWPPCVEVQRCSGCCNNRNVQCRPTQVQLRPVQVRKIEIVRKKPIFKKATVTLEDHLACKCETVAAARPVT"}, "B2": {"name": "BMP-3: member of the transforming growth factor beta family (protein, UniProt P12645 363-472, looked up)", "Bone morphogenetic protein 3": "QWIEPRNCARRYLKVDFADIGWSEWIISPKSFDAYYCSGACQFPMPKSLKPSNHATIQSIVRAVGVVPGIPEPCCVPEKMSSLSILFFDENKNVVLKVYPNMTVESCACR"}, "B3": {"name": "FGF4: Fibroblast growth factor 4, the FGF4 gene product, a 176 AA long protein (protein, UniProt P08620 31-206, looked up)", "Fibroblast growth factor 4": "APTAPNGTLEAELERRWESLVALSLARLPVAAQPKEAAVQSGAGDYLLGIKRLRRLYCNVGIGFHLQALPDGRIGGAHADTRDSLLELSPVERGVVSIFGVASRFFVAMSSKGKLYGSPFFTDECTFKEILLPNNYNAYESYKYPGMFIALSKNGKTKKGNRVSPTMKVTHFLPRL"}},
  "key": {"MSCs": {"test_system": "MSCs", "settings": "cited from earlier work"}, "mesenchymal stem cells [1]": {"test_system": "mesenchymal stem cells", "experiment": "Percent of MSC (CD105+CD45-) by FACS", "type": "cell-based, human", "settings": "NAM 5 mM, FGF4 50 ng/ml, PDGF-BB 50 ng/ml", "method": "At different time points the cells were detached with 0.25% trypsin-EDTA. The cells were washed with a PBS solution containing 1% BSA, and stained (at 4° C. for 30 min) with either fluorescein isothiocyanate (FITC) or phycoerythrin (PE)-conjugated antibodies: 105 PE, 105 FITC (Serotec, Raleigh, N.C.), 45 FITC, 14 FITC, HLA-DR FITC, 106 PE, 31 PE (BD, Franklin Lakes N.J.), 34 PE (Dako, Glostrup, Denmark), 73 PE, HLA class1 PE, 49b PE (Pharmingen, San Diego, Calif.), 29 PE, 44 PE, 54 FITC, 59 PE, 90 PE (BioLegend, San Diego, Calif.). […]\nThe cells were then washed in the above buffer and analyzed using a FACScalibur® flow cytometer (Becton Dickinson, Franklin Lakes N.J.). […] Emission of 10000 cells was measured using logarithmic amplification, and analyzed using the CellQuest software (Becton Dickinson). Cells stained with FITC- and PE-conjugated isotype control antibodies were used to determine background fluorescence.\n(§1) Mesenchymal stem cells were selected and cultured in the presence of particular growth factors (basic fibroblast growth factor—bFGF, heparin binding epidermal growth factor—HB-EGF, fibroblast growth factor 4—FGF-4 and platelet derived growth factor, homodimer, subunit B, PDGF-BB) in the presence and absence of nicotinamide for three or four passages and the number and size of the cells was calculated."}, "mesenchymal stem cells [2]": {"test_system": "mesenchymal stem cells", "experiment": "Cell size of cultured MSCs (Cedex cell counter)", "type": "cell-based, human", "settings": "between days 10-32 of culture", "method": "Cell size was measured using Cedex Automated Cell Counter (Innovatis). The cells were diluted 1:2 in Trypan Blue (Sigma) and cell size was measured automatically under microscope.\nas §1"}, "[3]": {"test_system": "umbilical cord-derived CD133+ hematopoietic stem cells", "experiment": "Differentiation and proliferation of ex-vivo cultured hematopoietic stem cells (FACS surface markers)", "type": "cell-based", "method": "Umbilical cord-derived hematopoietic stem cells were isolated using CD133 microbeads and CliniMACS® separator (Miltenyi, Inc. Auburn, Calif.), and cultured for 3 weeks in MEMα supplemented with 50 ng/ml TPO, IL6, SCF, Flt3, fetal bovine serum, ±2.5 or 5 mM nicotinamide, and/or 10, 50 or 200 ng/ml FGF4. After 3 weeks in culture the cells were stained for surface markers (CD38, CD133, CD33, CD19) and the cell populations determined by FACS analysis (see below). Results are expressed as percentage of total population assayed.\nAt different time points the cells were detached with 0.25% trypsin-EDTA. The cells were washed with a PBS solution containing 1% BSA, and stained (at 4° C. for 30 min) with either fluorescein isothiocyanate (FITC) or phycoerythrin (PE)-conjugated antibodies: 105 PE, 105 FITC (Serotec, Raleigh, N.C.), 45 FITC, 14 FITC, HLA-DR FITC, 106 PE, 31 PE (BD, Franklin Lakes N.J.), 34 PE (Dako, Glostrup, Denmark), 73 PE, HLA class1 PE, 49b PE (Pharmingen, San Diego, Calif.), 29 PE, 44 PE, 54 FITC, 59 PE, 90 PE (BioLegend, San Diego, Calif.). CD133—(AC141) PE (Miltenyi, Auburn, Calif.), CD38 FITC (Dako, Glostrup, Denmark), CD19 FITC (BD Biosciences, Franklin Lakes N.J.), CD33 FITC (BD Bioscience, Franklin Lakes N.J.).\nThe cells were then washed in the above buffer and analyzed using a FACScalibur® flow cytometer (Becton Dickinson, Franklin Lakes N.J.). The cells were passed at a rate of up to 1000 cells/second, using a 488 nm argon laser beam as the light source for excitation. Emission of 10000 cells was measured using logarithmic amplification, and analyzed using the CellQuest software (Becton Dickinson). Cells stained with FITC- and PE-conjugated isotype control antibodies were used to determine background fluorescence.\nUmbilical cord-derived CD133+ hematopoietic stem cells were isolated and cultured for 3 weeks in medium supplemented with early-acting growth factors and fetal bovine serum, nicotinamide and/or FGF4. After 3 weeks in culture the cells were stained for surface markers (CD38, CD133, CD19) and the cell populations determined by FACS analysis. Cell proliferation was assessed by counting total cells at three weeks."}},
  "note": "“Also recorded” adds a separate entry of the source.",
  "data": [
    {"molecule": "EGF: Epidermal growth factor", "values": [
      {"measurement": "increase in the number of colony-forming units of MSCs", "setting": "MSCs; Tamama et al. 2010", "value": 25, "unit": "%"}
    ]},
    {"molecule": "B1", "values": [
      {"measurement": "fraction of MSC (CD105+CD45-) versus cells other than MSCs in the culture", "setting": "mesenchymal stem cells [1]", "value": "contaminated with a higher fraction of cells other than MSCs"}
    ]},
    {"molecule": "B2", "values": [
      {"measurement": "increase of MSC proliferation", "setting": "MSCs; Stewart et al. 2010", "value": "threefold"}
    ]},
    {"molecule": "B3", "values": [
      {"measurement": "cell diameter of cultured MSCs", "setting": "mesenchymal stem cells [2]", "value": "greater than 20 μm"},
      {"measurement": "degree of differentiation of hematopoietic progenitor cells (CD38 and CD133-expressing fraction)", "setting": "[3]; 3 weeks culture, nicotinamide 2.5 or 5 mM, FGF4 10 to 200 ng/ml", "value": "without any effect on the degree of differentiation; also recorded: neither improved nor reduced"},
      {"measurement": "total cell proliferation in hematopoietic cultures", "setting": "[3]; 3 weeks, FGF4 with or without nicotinamide, results not shown", "value": "without any discernible effect"},
      {"measurement": "fraction of undifferentiated early progenitors (CD38-CD133+)", "setting": "[3]; 3 weeks, FIG. 35", "value": "absence of any significant effect"},
      {"measurement": "differentiation (CD38+ cells)", "setting": "[3]; 3 weeks, FIG. 36", "value": "absence of any significant effect"},
      {"measurement": "myeloid lineage differentiation (CD33+ cells)", "setting": "[3]; 3 weeks, FIG. 37", "value": "moderate enhancement"},
      {"measurement": "lymphoid lineage differentiation (CD19+ cells)", "setting": "[3]; 3 weeks, FIG. 38", "value": "absence of any significant effect"},
      {"measurement": "abundance of committed myeloid or lymphoid cells (CD33, CD19)", "setting": "[3]; three week cultures", "value": "without any effect"}
    ]}
  ]
}
